US20160083712

Key:
[1] = system: CSN6, soluble MPN domain construct of Example 2
Nedd8-AMC = Nedd8-AMC (UniProt Q15843)
Nedd8-AMC, sequence (Q15843 whole entry, looked up): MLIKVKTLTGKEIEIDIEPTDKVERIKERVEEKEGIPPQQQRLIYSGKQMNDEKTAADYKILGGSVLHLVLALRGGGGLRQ

CSN6, soluble MPN domain construct of Example 2, sequence (chain, as listed by the source): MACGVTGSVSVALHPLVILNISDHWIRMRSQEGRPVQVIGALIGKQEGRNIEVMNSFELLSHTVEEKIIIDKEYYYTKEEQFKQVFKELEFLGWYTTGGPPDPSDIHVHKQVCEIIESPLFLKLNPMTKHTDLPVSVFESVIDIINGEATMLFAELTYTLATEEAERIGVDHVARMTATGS
CSN51-257 R106T (human CSN5 residues 1-257 with Arg106 substituted by threonine), sequence (chain, as listed by the source R106T): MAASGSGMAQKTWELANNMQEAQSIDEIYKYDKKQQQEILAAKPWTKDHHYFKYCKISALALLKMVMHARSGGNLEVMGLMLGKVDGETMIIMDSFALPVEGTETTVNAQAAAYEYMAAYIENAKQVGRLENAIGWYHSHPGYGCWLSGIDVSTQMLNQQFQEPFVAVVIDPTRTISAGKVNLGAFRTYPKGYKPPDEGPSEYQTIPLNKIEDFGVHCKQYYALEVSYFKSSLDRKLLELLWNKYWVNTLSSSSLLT
GST-CSN51-257 R106T (GST-tagged human CSN5 residues 1-257 with Arg106 substituted by threonine), sequence (chain, as listed by the source R106T): as above
CSN5 R106T, activatory mutant form, construct of Example 2, sequence (chain, as listed by the source R106T): as above
CSN51-257 wild type (human CSN5 residues 1-257, GST tag cleaved off), sequence (chain, as listed by the source): as the sequence (chain, as listed by the source R106T) above, with T106R counted along it
CSN5 WT, soluble MPN domain construct of Example 2, sequence (chain, as listed by the source): as the sequence (chain, as listed by the source R106T) above, with T106R counted along it
GST-CSN51-257 wild type (GST-tagged human CSN5 residues 1-257), sequence (chain, as listed by the source): as the sequence (chain, as listed by the source R106T) above, with T106R counted along it

In the case of “CSN5 R106T, activatory mutant form, construct of Example 2”, the “CSN5 isopeptidase activity (substrates LRGG-AMC, Nedd8-AMC, Nedd8-cullin 1)” value [1] was “this effect is consistently more marked in the context of the activatory mutant form of CSN5, CSN5 R106T than the WT form”.
With “CSN5 WT, soluble MPN domain construct of Example 2” the “CSN5 isopeptidase activity (substrates LRGG-AMC, Nedd8-AMC, Nedd8-cullin 1)” value [1] was “CSN6 is able to significantly enhance CSN5 isopeptidase activity”.
With “CSN51-257 R106T (human CSN5 residues 1-257 with Arg106 substituted by threonine)” the “isopeptidase activity (hydrolysis of Nedd8-AMC, fluorescence)” value (Nedd8-AMC) was “the R106T substitution is sufficient to restore constitutive isopeptidase activity against two isopeptidase substrates, LRGG-AMC and Nedd8-AMC”.
With “GST-CSN51-257 R106T (GST-tagged human CSN5 residues 1-257 with Arg106 substituted by threonine)” the “isopeptidase activity (hydrolysis of LRGG-AMC, fluorescence)” value (LRGG-AMC) was “the R106T substitution is sufficient to restore constitutive isopeptidase activity against two isopeptidase substrates, LRGG-AMC and Nedd8-AMC”.
With “GST-CSN51-257 wild type (GST-tagged human CSN5 residues 1-257)” the “isopeptidase activity (hydrolysis of LRGG-AMC, fluorescence)” value (LRGG-AMC) was “the CSN51-257 WT form is void of isopeptidase activity”.
In the case of “CSN51-257 wild type (human CSN5 residues 1-257, GST tag cleaved off)”, the “isopeptidase activity (hydrolysis of Nedd8-AMC, fluorescence)” value (Nedd8-AMC) was “the CSN51-257 WT form is void of isopeptidase activity”.
